Results: paper PMC8677511

B1: G3BP1 3' UTR probe (nt334-358) (ssRNA)
RNA: UUUUUUGUGUGUUAAUGGUGUGUG
B2: (AC)12 (ssRNA)
RNA: ACACACACACACACACACACACAC
B3: GRN (nt262-288) probe (ssRNA)
RNA: UGUGUGUGUGUGCGCGUGUGCGUGUG

Molecular target: TDP-43 recombinant (rTDP-43) (UniProt Q13148 1-414)
Test: pull-down

Chain of TDP-43 recombinant (rTDP-43) (Q13148 whole entry): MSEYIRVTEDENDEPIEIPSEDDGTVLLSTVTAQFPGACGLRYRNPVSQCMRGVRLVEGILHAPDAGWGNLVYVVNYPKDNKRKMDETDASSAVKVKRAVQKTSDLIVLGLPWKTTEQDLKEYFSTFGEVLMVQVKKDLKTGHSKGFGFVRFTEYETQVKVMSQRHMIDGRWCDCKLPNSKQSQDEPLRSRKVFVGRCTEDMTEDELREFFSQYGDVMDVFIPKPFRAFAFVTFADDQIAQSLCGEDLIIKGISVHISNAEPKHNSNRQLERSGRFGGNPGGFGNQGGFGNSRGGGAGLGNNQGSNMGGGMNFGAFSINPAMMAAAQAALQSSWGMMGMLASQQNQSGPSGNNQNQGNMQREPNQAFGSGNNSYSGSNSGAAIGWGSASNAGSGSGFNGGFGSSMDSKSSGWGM

Row | Binder | binding result
1 | B1 | binds
2 | B2 | no binding
3 | B3 | binds
